Assay: yeast display, Sf9 membrane polyspecificity reagent, FACS + sequencing; frameworks hold sequencing errors
Summary of the method: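 Genes from sorted yeast were amplified by colony PCR, read by MiSeq 2 × 250 sequencing and filtered on CDR length. These cells carried a synthetic nanobody library in Saccharomyces cerevisiae BJ5465 and were sorted by FACS into low and high (top ~1%) gates on anti-HA and streptavidin fluorescence. Polyreactivity is labelled according to the gate of origin.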

Row | Sequence | polyreactivity (PSR sort gate)
1 | QVQLVESGGGLVQAGGSLRLSCAASGSIFPPYAMGWYRQAPGKERELVATITIRGGSTYYADSVKGRFTISRDNAKNTVYLEMNSLKPDDTAVYYCAADYTKYYRSYYYWGQGTQVTVSS | high polyreactivity
2 | QVQLVESGGGLVQAGGSLRLSCADSGITLYYNAMGWYRQAPGKERELVAAISWSGDSTYYADSVKGRFTISRDNAKNTVYLQMNSLKPEDTAVYYCAADRYTYYHYAWYEYWGQGTQVTVSS | low polyreactivity
3 | QVQLVESGGGLVQAGGSLRLSCAASGITFVNNAMGWYRQAPGKEREFVAAISWSGGNTYYADSVKGRFTISRDNAKNTVYLQMISLKPEDTAVYYCSGYISRSRFRFYYWGQGTQVTVSS | low polyreactivity
4 | QVQLEETGGGLVQAGASLRISCAASGSIMGQNGMGWYRHAPGKEREFVAGIGYGTTTNYADSVKGRFTTSRDNAKNTVYLQMISMKPEDTAVYYCAAYQGNGYEFYYWGQGTQVTVRS | low polyreactivity
5 | QVQLVESGGGLVQAGGSLRLSCAASGSTFHGYALGWYRQAPGKERELVAAISWSGGRTYYADSVKGRFTISRDNAKNTVYLQMNSLKPEDTAVYYCNKDGYYRWQSTYLANRYDYWGQGTQVTVSS | high polyreactivity
6 | QVQLVESGGGLVQAGGSLRLSCAASGSTFYRYTMGWYRQAPGTERELVSAISRSGGSTYYADSVKGRFTISRDNAKNTVYLQMNSLKPEDTAVYYCATYGDFKSGYRYGYWGQGTQVTVSS | high polyreactivity
7 | QVQLVESGGGLVQAGGSLRLSCAASGSIFINYVMGWYRQAPGKERELVAAISSIGDSTYYADSVKGRFTISRDNAKNTVYLQMNSLKPEDTAVYYCNAEIPSLKASPLYRYDYWGQGTKVTVSS | high polyreactivity
8 | QVQLVESGGGLVQAGGSLRLSCAASGRIFYRNAMGGSRQAPGKERELVAAISYSGGSTYYADSVKGRFTISRDNAKNTVYLQMNSLKPEDTAVYYCAAARDRWGNYWGQGTQVTVSS | high polyreactivity
9 | QVHLVESGGGLVQAGGSLRLSCAASGSTFYVYAMGWYRQAPGKERELVAAISTSTGNTYYADSVKGRFTISRDNAKNTVYLQMNSLKPEDSAVYDCANSGSSSHYYSWGQGTQVTVSS | low polyreactivity
10 | QVQLVESGGGLDQAGGSLRLSCAASGFIFYDYDMGWYRQAPGKERELVAAISDGGSTNYADSVKGRFTISRDNAKNTVYFQRNSLKPEDTAVYYCAKDGFVYYDYFQYIEYDYWGQGTQVTVSS | low polyreactivity
11 | QVQLVESGGGLVQAGGSLRLSCAACGSTFWYYAMGWYRQAPGKEREFVAAISKSGDSTNYADSVKGRFTISRDNAKNTVYLQMNSLKPEDTAVYYCAATRSSGRFRYYYWGQGTQVTVSS | high polyreactivity
12 | QVQLVESGGGLVQAGGSLRLSCAASGSTFSYNAMGWYRQAPGKEREFVAAITTSGVRTYYADSVKGRFTISRDNAKNTVYLQMNSLKPEDTAVYYCAARANYIFYGMDYWGQGTQVSVSS | high polyreactivity
13 | QVQLVESGGGLDQAGGSLRLSCAASGRIIYWYAMGWFRQAPGKERELVAAINNGGGTNYADSVKGRFTISRDNAKHTVYLQMNSLKPEDTAVYYCAADYVFYSRFFTEVYWGQGTQVTVSS | low polyreactivity
14 | QVQLVESGGGLVQAGGSLRLSCAASGNAMGWYRQAPGKERELVASINRSGGRTYYADSVKGRFTISRDNAKNTVYLQMISLKPEDTAVYYCGARPHYDSDYWGQGTQVTVSS | low polyreactivity
15 | QVQLVESGGGLVQAGGSLRLSCAASGLIFTYYAMGWYRQAPGKERELVAAITSGGTTNYADSVKGRFTISRDNAKNTVYLQMNSLKPEDTAVYYCAADYDTGSERYEYWGQGTQVTVSS | low polyreactivity
16 | QVQLVESGGGLVQAGGRLRLSCAASGRIFGFNAMGWYRQAPGKERELVAAIDGNDASTFYADSGKGRFTISRDNAKNTDYFQMNSLKPEDTAVYYCAAESSYVYLGWREYWGQGTQVTVSS | high polyreactivity
17 | QVQLVESGGGFVQAGGSLRLSCASSGRTFRLYAMGWYRQAPGKERELVDVIRSGDSTNYADSVKGRFTISSDNAKNTVYLQMNSVKPEDTAVYYCAADVLYYYGKYDYWGQGTQVTVSS | high polyreactivity
18 | QVQLVESGGALVQAGGSLRLSCAASGSIFYTNAMGWYRQAPGKERELVAAIRWSGGRTYYADSVKGRFTISRDNAKNTVYLQMNSLKPEDTAVYYCNKVPRTPIPYKYGDWGQGTHVTVSS | high polyreactivity
19 | QVQLVESGGGLVQAGGSLRISCAASGRILARNAMGWYRQAPGKERDLVATITWTDGSTYYADSVKGRFTISRDNAKNTVYLQMNSLKPEDTAVYYCDADLPGYWLPTVPKNYGDYWGQGTQVTVSS | low polyreactivity
20 | QVQLVESGGGLVQAGGSLRLSCAASGFTFKFYAMGWYRQAPGKERELVAAISWSGGSTYYADSVKGRFTISRDNAKNTVYLQMNSLKPEDTAVYYFAKRGGRQTYYYWGLGTQVTVSS | high polyreactivity
21 | QVQIVESGGGLVQAGGSLRLTCAASGSIFGYYAMGWYRQAPGKERELVAAITTGGSTSYADSVKGRFTISRDNAKKTVYLQMNSLKPEDTAVYYCNARFKLLFGRADDYWGQGTQVTVSS | low polyreactivity
22 | QVQLVESGGGLVQAGASLRLSCAASGFIFGKYAMGWYRQAPGKERELVAAISSSGGSTYYADSVKGRFTISRDTAKNTVYLQMNSLKPEDTAGYYCNAKVRGTNTAGVDYWGQGTQVTVSS | high polyreactivity

Row | Sequence | polyreactivity (PSR sort gate)
23 | QVQLVESGGGLVQAGGSLRLSCAASGSTFPYYAMGWYRQATGKERELVAAISSGGRTTYADSVKGRFTISRDNAKNTVYLQMNSLKPEDTAVYYCNRRYTHGGFSKYEYWGQGTQVTVSS | high polyreactivity
24 | QVQLVESGGGLVQAGGSLRLSCAASGRTFFVYAMGWYRQAPGKERELVASITLSRGSTYYADSVKGRFTISRDNAKNTCYLQMNSLKPEDTAVYYCSKGWSRDNDREREDEYWGQGTQVTVSS | low polyreactivity
25 | QVQLVESGGGLVQAGGTLRLSCAASGMTFSRNGMGWYRQAPGKEREVVADISYRGGRTYYADSVKGRFTFSRDNAKNTVYLQMHSLKPEDTAVYYCNAVFLVGVGPTSDYWGQRTQVTVSS | high polyreactivity
26 | QVQLVESGGGLVQAGGSLRLSCAASGSIFARNAMGWYRQAPGKERELVASITSNSGNTYYADSVKGRFTISRDNAKNTVYLQMNSLKPEDTAVYYCAADQLSDEYDYWGQGTQVTVSS | high polyreactivity
27 | QVQLVESGGGLVQAGGSLRLSCAASGFTFSRKAMGWYRQAPGKERELVASITRSGASTYYADSVKGRFTISRDNAKNTVYLQMNSLKPEDTAVYYCNAYYVALPPNMDYWGQGTQVTLSS | high polyreactivity
28 | QVQLVESGGGLVQAGGSLRLSCAASGFIFRYYAMGWYRQAPGKERELVAAITWSGGSTYYADSVKGRFTISRDNAKNTVYLQMNSLKPEDTAVYYCAADLYYFRYPGYDYWGQGTQVTVSS | high polyreactivity
29 | QVQLVESGGGLVQAGGSLRLSCAASGSTLYWYAMGWYRQAPGKERELVARITVSGGSTSYADSVKGRFTISRYNAKNTVYLQMNSLKPEDTAVYYCAARRYWTGYYYWGQGTQVTVSS | high polyreactivity
30 | QVQLVESGGGLVQAGGSLRLSCAASGRIFRWNAMGWYRQAPGKERELVAVISSGGSTNYADSVKGRFTISRDNAKNTVYLQMNSLKPEDTAVYYCAKGLIRYSHLDYWGQGTQVTVSS | low polyreactivity
31 | QVQLVESGGGLVQAGGSLSLICAASGFIYYTMGWYRQAPGKEWELVAAISRSGGSTYYADSVKGRFTISRDNAKNTVYLQMNSLKPEDTAVYYCAARRPYRDGYDYWGQGTQVTVSS | high polyreactivity
32 | HVQLVESGGGLVQAGGSLRLSCAASGSIFVSYGMGWYRQAPGKEWELVASISNSAGSTYYADSVKGRFTISRDNAQNTVYLQMNSLKPDDTAVYSCAADYWVWAYGGYDAYNYWGQGTQVTVSS | high polyreactivity
33 | QVQLVESGGGLVQAGGSLRLSCAASGSTFTGYAMGWYRQAPGKEREFVANITKRGGRTYYADSVKGRFTISRDNAKNTVYLQMNSLKPEDTAGYYCARDQGKLVVPYEYWGQATQVTVSS | high polyreactivity
34 | QVQLVESGGGLVQAGVSLRLSCAASGSTLISNTMGWNRQAPWKERELVAAITRTGGRTYYADSVKGRFTSSRDTAKNTVDLPMNSLKPEDTAVYYCARYGGYLSLKYDYWGQGTQVTVAS | high polyreactivity
35 | QVQLVESGGGLVQAGGSLRLSCAASGYIFAVYAMGWYIQAPGKEREFVAVITWRGGSTYYADSVKGRFTISRDNAKNTVYLQMNSLKPEDTAVYYCADDVYAQYDYWGQGTQVTVSS | high polyreactivity
36 | QVQLVESGGGLVQAGGSLRLSCAASGRIFDDYVMGWYRKAPGKERELVARISVRGGSTYYADSVKGRFTISRDNAKNTVYLQMNSLKPEDTAVYYCNAVFGGWLGPFDYWGQGTQVTVSS | low polyreactivity
37 | QVQLVESGGGLVQAGGSLRLSCAASGSIFSTNAMGWYRQAPGKEWELVAVITGIGGITYYADSVKGRFTISRDNAKNTDYLQMNSLKPEDTAVYYCAADPISEFYWGVKDRYDYWGQGTQVTVSS | low polyreactivity
38 | QFQLVESRGGLVQAGGSLRLSCAASGFIFTHYAMGWYRQAPGKERELVAAITRRGGDTHYADSVKGRFTISRDNPKNTVYLQMNSLKPEDTAVYYSNAKRYSWGYYPAFDYWGHGTQVTVSS | high polyreactivity
39 | QVQLVESGGGLVQAGGSLRVSCASSGRTFSRNAMGWYRQAPGKEMELVATISRRGGSTNYADSVKGRFTISRDNAKNTVYLQMNSMKQEDTAVYYCAAGYRVRDDKVYGIVGPMDYWGQGTQVNVSS | high polyreactivity
40 | QVQLVESGGGLVQAGGSRRLSCAASGRTFVSNVMGWYRPAPGKDRELVAAINWSGDSTYYADSVKGRFTISRDNAKNTVYLQMNSLKPEDTAGYYCAVQGGYFDTWDGDYWGQGTQVTVSS | low polyreactivity
41 | QVQLVESGGGLVQAGGSLRLSCAASGRIFGFYALGWYRQAAGKEWELVAAISQSRGSTYYADSVKGRFTISRDTANNTVYLQMNSLKPEDTAVYYCAKGYKYGKNIYYYWGQGTQVTVSS | high polyreactivity
42 | QVQLVESGGGLVQAGGSLRLSCAASGRTLSANAMGWYRQAPGKERELVATISTRGGRTYYADSVKGRFTISRDNAKNTVYLQMNSLKPEDTAVYYCARLPPGDMDYWGQGTQVTVSS | low polyreactivity
43 | QEQLVESGGGIVQAGGTLRLSGADSGSIFVKNAMGWYRQAHGKERQWVARITYSGGSTYYADSVKGRFTISRDNAKNTVYLQMNSLKPEDTAVYYCAARYWYFPQPYYPGNDYWGQGTQVTVSS | high polyreactivity

Source: the nanobody polyreactivity screen of Harvey et al. (2022)
